Measurements published in paper PMC5887453 (Nucleic Acids Research, 2018).

How the values were obtained:
Assay in all cases: native gel or EMSA
PhoEF-2 V198S = target: T1, PhoEF-2 V198S (Pyrococcus horikoshii, UniProt O59521 1-732, V198S)
T1 sequence (looked up): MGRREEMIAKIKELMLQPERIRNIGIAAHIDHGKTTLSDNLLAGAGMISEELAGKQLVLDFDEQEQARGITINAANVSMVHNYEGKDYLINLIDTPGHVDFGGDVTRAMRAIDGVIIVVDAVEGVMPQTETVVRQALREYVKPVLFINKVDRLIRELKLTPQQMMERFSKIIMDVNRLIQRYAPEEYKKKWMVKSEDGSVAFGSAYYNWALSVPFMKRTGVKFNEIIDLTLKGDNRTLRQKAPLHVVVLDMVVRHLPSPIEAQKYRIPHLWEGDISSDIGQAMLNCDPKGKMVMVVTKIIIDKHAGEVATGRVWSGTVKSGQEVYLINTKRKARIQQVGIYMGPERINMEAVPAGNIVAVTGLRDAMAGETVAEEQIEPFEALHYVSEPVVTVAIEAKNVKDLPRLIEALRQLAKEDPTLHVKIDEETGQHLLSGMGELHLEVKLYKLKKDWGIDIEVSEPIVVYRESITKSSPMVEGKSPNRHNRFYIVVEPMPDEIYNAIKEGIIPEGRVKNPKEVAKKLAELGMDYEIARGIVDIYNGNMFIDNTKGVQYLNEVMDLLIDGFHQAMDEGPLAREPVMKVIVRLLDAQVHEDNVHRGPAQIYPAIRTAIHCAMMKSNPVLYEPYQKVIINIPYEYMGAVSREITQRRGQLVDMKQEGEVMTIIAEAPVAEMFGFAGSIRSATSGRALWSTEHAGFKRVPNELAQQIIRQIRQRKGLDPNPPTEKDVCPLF

PhoEF-2 P164S = target: T2, PhoEF-2 P164S (Pyrococcus horikoshii, UniProt O59521 1-732, P164S)
T2 sequence (looked up): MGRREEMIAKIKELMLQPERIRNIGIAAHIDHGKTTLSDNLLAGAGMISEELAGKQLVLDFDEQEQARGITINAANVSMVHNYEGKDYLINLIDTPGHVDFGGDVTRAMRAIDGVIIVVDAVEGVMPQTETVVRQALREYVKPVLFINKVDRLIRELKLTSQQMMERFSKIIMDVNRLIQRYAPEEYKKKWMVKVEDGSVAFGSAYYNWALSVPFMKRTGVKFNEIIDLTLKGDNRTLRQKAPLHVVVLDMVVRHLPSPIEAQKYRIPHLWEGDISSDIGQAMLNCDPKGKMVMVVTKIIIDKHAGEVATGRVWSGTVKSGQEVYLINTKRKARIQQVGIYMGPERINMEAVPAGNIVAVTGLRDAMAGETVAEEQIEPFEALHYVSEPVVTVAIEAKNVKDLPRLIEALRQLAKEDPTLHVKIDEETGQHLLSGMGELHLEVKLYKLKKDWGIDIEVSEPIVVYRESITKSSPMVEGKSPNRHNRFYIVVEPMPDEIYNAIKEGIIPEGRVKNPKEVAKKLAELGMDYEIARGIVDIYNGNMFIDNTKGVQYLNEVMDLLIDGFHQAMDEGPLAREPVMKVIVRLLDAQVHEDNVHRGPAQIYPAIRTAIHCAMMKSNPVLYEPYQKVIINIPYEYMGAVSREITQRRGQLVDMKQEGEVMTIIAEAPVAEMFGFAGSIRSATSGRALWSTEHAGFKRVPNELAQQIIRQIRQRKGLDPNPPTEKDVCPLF

PhoEF-2 M168S = target: T3, PhoEF-2 M168S (Pyrococcus horikoshii, UniProt O59521 1-732, M168S)
T3 sequence (looked up): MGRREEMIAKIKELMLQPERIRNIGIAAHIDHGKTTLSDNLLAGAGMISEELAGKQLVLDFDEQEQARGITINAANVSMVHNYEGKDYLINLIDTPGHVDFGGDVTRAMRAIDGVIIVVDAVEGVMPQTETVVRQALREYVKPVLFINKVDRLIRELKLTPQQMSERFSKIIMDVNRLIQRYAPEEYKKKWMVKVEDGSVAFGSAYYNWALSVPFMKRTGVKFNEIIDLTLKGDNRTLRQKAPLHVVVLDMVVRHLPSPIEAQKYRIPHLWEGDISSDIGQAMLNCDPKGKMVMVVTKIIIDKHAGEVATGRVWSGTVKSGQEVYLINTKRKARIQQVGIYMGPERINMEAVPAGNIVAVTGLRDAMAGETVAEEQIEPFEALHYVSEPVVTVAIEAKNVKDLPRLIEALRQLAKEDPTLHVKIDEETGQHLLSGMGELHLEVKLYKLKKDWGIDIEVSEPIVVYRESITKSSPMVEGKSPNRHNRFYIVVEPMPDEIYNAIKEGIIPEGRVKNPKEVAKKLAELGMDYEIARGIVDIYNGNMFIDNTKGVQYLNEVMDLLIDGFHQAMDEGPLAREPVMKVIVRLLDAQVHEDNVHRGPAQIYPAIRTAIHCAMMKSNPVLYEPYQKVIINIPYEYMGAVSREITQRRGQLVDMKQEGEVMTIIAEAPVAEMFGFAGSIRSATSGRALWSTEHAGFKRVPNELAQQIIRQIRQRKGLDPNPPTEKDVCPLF

Measured: binding result

B1: Pyrococcus horikoshii ribosomal stalk protein P1 (natural protein, UniProt O57705 1-108, looked up)
chain: MEYVYAALLLHSVGKEINEENLKAVLQAAGVEPEEARIKALVAALEGVNIDEVIEKAAMPVAVAAAPAAAPAEAGGEEKKEEEKKEEEEKEEEVSEEEALAGLSALFG
modifications: in the SPR only: biotin on amino groups via a PEG linker (EZ-Link NHS-PEG4-Biotin)
binds: all assays above
